Results reported in patent publication US20040053823.

Columns and labels:
[1] = system: phage clone A29 (SEQ ID NO:27)
[2] = system: phage clone B37 (SEQ ID NO:13)
[3] = system: phage clone A45 (SEQ ID NO:25)
[4] = system: phage clone A54 (SEQ ID NO:4)
[5] = system: phage clone A3 (SEQ ID NO:24)
[6] = system: phage clone A21 (SEQ ID NO:17)
[7] = system: phage clone C3 (SEQ ID NO:16)
[8] = system: variants of three peptides synthesized to contain a Pro at P3
[9] = system: synthesized polypeptide B49 (SEQ ID NO:1)
[10] = system: synthesized polypeptide C9 (SEQ ID NO:10)
[11] = system: phage clone B53 (SEQ ID NO:15)
[12] = system: phage clone A34 (SEQ ID NO:11)
[13] = system: phage clone A9 (SEQ ID NO:19)
[14] = system: phage clone A10 (SEQ ID NO:26)
[15] = system: phage clone D3 (SEQ ID NO:23)
[16] = system: phage clone C9 (SEQ ID NO:10)
[17] = system: synthesized polypeptide A3 (SEQ ID NO:24)
[18] = system: synthesized polypeptide B74 (SEQ ID NO:2)
[19] = system: phage clone A43 (SEQ ID NO:8)
[20] = system: phage clone C5 (SEQ ID NO:18)
[21] = system: phage clone A54 (SEQ ID NO:3)
[22] = system: phage clone B46 (SEQ ID NO:7)
[23] = system: synthesized polypeptide B37 (SEQ ID NO:13)
[24] = system: phage clone A4 (SEQ ID NO:21)
[25] = system: phage clone A13 (SEQ ID NO:12)
[26] = system: phage clone A21 (SEQ ID NO:20)
[27] = system: phage clone B49 (SEQ ID NO:1)
[28] = system: phage clone B66 (SEQ ID NO:6)
[29] = system: phage clone B74 (SEQ ID NO:2)
[30] = system: phage clone A6 (SEQ ID NO:9), MMP-2 substrate
[31] = system: synthesized polypeptide A13 (SEQ ID NO:12)
[32] = system: synthesized polypeptide A21 (SEQ ID NO:17)
[33] = system: phage clone C6 (SEQ ID NO:22)
[34] = system: phage clone B79 (SEQ ID NO:5)
[35] = system: synthesized polypeptide A34 (SEQ ID NO:11)
[36] = system: phage clone A31 (SEQ ID NO:14)
[37] = system: mutant peptide A11m2 (AC-SGKIPRTATA-NH2, SEQ ID NO:126)
[38] = system: synthesized polypeptide A11 (contains SEQ ID NO:29)
[39] = system: phage clone D17 (SEQ ID NO:35)
[40] = system: phage clone D36 (SEQ ID NO:32)
[41] = system: phage clone A11 (SEQ ID NO:29)
[42] = system: synthesized polypeptide C15 (contains SEQ ID NO:28)
[43] = system: phage clone D12 (SEQ ID NO:31)
[44] = system: phage clone D5 (SEQ ID NO:34)
[45] = system: the peptides (MMP-9 substrate peptides of Example III)
[46] = system: synthesized polypeptide A6 (contains SEQ ID NO:30)
[47] = system: phage clone D24 (SEQ ID NO:33)
[48] = system: phage clone A6 (SEQ ID NO:30), MMP-9 substrate
[49] = system: phage clone C15 (SEQ ID NO:28)

Sequence of MMP-2 (recombinant catalytic domain, APMA-activated) (chain, as listed by the source): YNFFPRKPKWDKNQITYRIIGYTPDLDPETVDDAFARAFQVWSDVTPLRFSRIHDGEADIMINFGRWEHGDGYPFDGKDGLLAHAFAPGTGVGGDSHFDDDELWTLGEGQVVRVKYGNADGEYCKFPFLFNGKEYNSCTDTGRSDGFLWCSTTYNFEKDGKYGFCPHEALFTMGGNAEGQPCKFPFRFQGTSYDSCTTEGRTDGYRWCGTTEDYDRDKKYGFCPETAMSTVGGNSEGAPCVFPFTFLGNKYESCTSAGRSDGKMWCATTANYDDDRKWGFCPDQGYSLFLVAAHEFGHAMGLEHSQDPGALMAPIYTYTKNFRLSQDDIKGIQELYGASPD
Sequence of MMP-9 (recombinant catalytic domain, APMA-activated) (chain, as listed by the source): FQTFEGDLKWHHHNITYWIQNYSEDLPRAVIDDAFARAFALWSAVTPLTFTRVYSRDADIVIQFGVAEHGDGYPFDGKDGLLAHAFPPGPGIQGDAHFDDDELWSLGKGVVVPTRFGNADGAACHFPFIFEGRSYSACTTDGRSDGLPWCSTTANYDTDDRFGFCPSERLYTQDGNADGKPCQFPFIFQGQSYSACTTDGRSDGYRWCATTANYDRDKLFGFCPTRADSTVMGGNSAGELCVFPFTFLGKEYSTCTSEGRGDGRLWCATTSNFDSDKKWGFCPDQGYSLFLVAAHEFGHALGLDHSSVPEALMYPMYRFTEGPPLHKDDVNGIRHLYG

## MMP-2 (recombinant catalytic domain, APMA-activated)
[1]
  % hydrolysis (substrate phage ELISA): 100%
[2]
  % hydrolysis (substrate phage ELISA): 97%
[3]
  % hydrolysis (substrate phage ELISA): 100%
[4]
  % hydrolysis (substrate phage ELISA): 72%
[5]
  % hydrolysis (substrate phage ELISA): 100%
[6]
  % hydrolysis (substrate phage ELISA): 30%
[7]
  % hydrolysis (substrate phage ELISA): 28%
[8]
  peptide hydrolysis (kcat/Km), compared with MMP-9: the proline-containing peptides remained better substrates for MMP-2 (data not shown)
[9]
  selectivity ratio: kcat/Km for MMP-2 divided by kcat/Km for MMP-7: 6
  selectivity ratio: kcat/Km for MMP-2 divided by kcat/Km for MMP-9: 14
  selectivity ratio: kcat/Km for MMP-2 divided by kcat/Km for MMP-13: 13
[10]
  selectivity ratio: kcat/Km for MMP-2 divided by kcat/Km for MMP-7: 35
  selectivity ratio: kcat/Km for MMP-2 divided by kcat/Km for MMP-9: 198
  selectivity ratio: kcat/Km for MMP-2 divided by kcat/Km for MMP-13: 52
[11]
  % hydrolysis (substrate phage ELISA): 73%
[12]
  % hydrolysis (substrate phage ELISA): 100%
[13]
  % hydrolysis (substrate phage ELISA): 50%
[14]
  % hydrolysis (substrate phage ELISA): 80%
[15]
  % hydrolysis (substrate phage ELISA): 13%
[16]
  % hydrolysis (substrate phage ELISA): 100%
[17]
  selectivity ratio: kcat/Km for MMP-2 divided by kcat/Km for MMP-7: 21
  selectivity ratio: kcat/Km for MMP-2 divided by kcat/Km for MMP-9: 2
  selectivity ratio: kcat/Km for MMP-2 divided by kcat/Km for MMP-13: 14
[18]
  selectivity ratio: kcat/Km for MMP-2 divided by kcat/Km for MMP-7: 354
  selectivity ratio: kcat/Km for MMP-2 divided by kcat/Km for MMP-9: 108
  selectivity ratio: kcat/Km for MMP-2 divided by kcat/Km for MMP-13: 140
[19]
  % hydrolysis (substrate phage ELISA): 38%
[20]
  % hydrolysis (substrate phage ELISA): 60%
[21]
  % hydrolysis (substrate phage ELISA): 98%
[22]
  % hydrolysis (substrate phage ELISA): 48%
[23]
  selectivity ratio: kcat/Km for MMP-2 divided by kcat/Km for MMP-7: 17
  selectivity ratio: kcat/Km for MMP-2 divided by kcat/Km for MMP-9: 71
  selectivity ratio: kcat/Km for MMP-2 divided by kcat/Km for MMP-13: 58
[24]
  % hydrolysis (substrate phage ELISA): 30%
[25]
  % hydrolysis (substrate phage ELISA): 100%
[26]
  % hydrolysis (substrate phage ELISA): 30%
[27]
  % hydrolysis (substrate phage ELISA): 100%
[28]
  % hydrolysis (substrate phage ELISA): 51%
[29]
  % hydrolysis (substrate phage ELISA): 81%
[30]
  % hydrolysis (substrate phage ELISA): 30%
[31]
  selectivity ratio: kcat/Km for MMP-2 divided by kcat/Km for MMP-7: 13
  selectivity ratio: kcat/Km for MMP-2 divided by kcat/Km for MMP-9: 15
  selectivity ratio: kcat/Km for MMP-2 divided by kcat/Km for MMP-13: 28
[32]
  selectivity ratio: kcat/Km for MMP-2 divided by kcat/Km for MMP-9: 8
[33]
  % hydrolysis (substrate phage ELISA): 19%
[34]
  % hydrolysis (substrate phage ELISA): 64%
[35]
  selectivity ratio: kcat/Km for MMP-2 divided by kcat/Km for MMP-7: 84
  selectivity ratio: kcat/Km for MMP-2 divided by kcat/Km for MMP-9: 40
  selectivity ratio: kcat/Km for MMP-2 divided by kcat/Km for MMP-13: 24
[36]
  % hydrolysis (substrate phage ELISA): 100%

## MMP-9 (recombinant catalytic domain, APMA-activated)
[37]
  fold reduction of kcat/Km relative to peptide A11: reduced kcat/Km ratio nearly 30-fold
  kcat/Km ratio: measurable kcat/Km ratio (2,000M^-1s^-1)
[38]
  selectivity ratio: kcat/Km for MMP-9 divided by kcat/Km for MMP-7: 10
  selectivity ratio: kcat/Km for MMP-9 divided by kcat/Km for MMP-13: 3
[8]
  fold increase of the kcat/Km ratio on inclusion of Pro at P3: increased the kcat/Km ratio for MMP-9 between three and eleven-fold
[39]
  % hydrolysis (substrate phage ELISA): 67%
[40]
  % hydrolysis (substrate phage ELISA): 91%
[41]
  % hydrolysis (substrate phage ELISA): 100%
[42]
  selectivity ratio: kcat/Km for MMP-9 divided by kcat/Km for MMP-7: 14
  selectivity ratio: kcat/Km for MMP-9 divided by kcat/Km for MMP-13: 12
[43]
  % hydrolysis (substrate phage ELISA): 100%
[44]
  % hydrolysis (substrate phage ELISA): 60%
[45]
  Km (Michaelis constant): Km values were generally in the high micromolar to low millimolar range
  kcat (first-order rate constant of substrate peptide turnover): the kcat values ranged from 9 s^-1 to 703 s^-1
  kcat/Km ratio for MMP-9 over that for MMP-7 or MMP-13: The kcat/Km ratios ranged from 2.6 to 47 fold higher for MMP-9 than for either MMP-7 or MMP-13
[46]
  selectivity ratio: kcat/Km for MMP-9 divided by kcat/Km for MMP-7: 47
  selectivity ratio: kcat/Km for MMP-9 divided by kcat/Km for MMP-13: 5
[47]
  % hydrolysis (substrate phage ELISA): 85%
Mutant peptide A11m1
  kcat/Km relative to the parent peptide A11: 2 fold
[48]
  % hydrolysis (substrate phage ELISA): 100%
[49]
  % hydrolysis (substrate phage ELISA): 100%
